This note sets out measurements from the nanobody polyreactivity screen of Harvey et al. (2022).

The nature of the series: yeast display, Sf9 membrane polyspecificity reagent, FACS + sequencing; frameworks hold sequencing errors. A digest of the protocol: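 Nanobodies from a synthetic yeast display library (Saccharomyces cerevisiae BJ5465), induced 36–48 hours with galactose, were stained 1 hour at 4 °C with 10% biotinylated, detergent-solubilized Sf9 membrane reagent, enriched on streptavidin microbeads, then FACS-sorted. Anti-HA (expression) and streptavidin (reagent binding) fluorescence set low and high (top ~1%) gates. Polyreactivity labels come from the gate of origin. Genes were colony-PCR amplified, MiSeq 2 × 250 sequenced and filtered by CDR length.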
As for “QVQLHESGSGLVQAGGSLRLSCAASGAIFPANLMGWYRQAPGKERELVAGISYGSITYCADSVKGRFNISRDNAKHTVYLQMNSLKPEDTAVYYCEVWRPGGDEYYYWGQGTQVTVSS”, the “polyreactivity (PSR sort gate)” value is on record as “low polyreactivity”. For “QVQLLDSGGGLVQAGGSLRLSCDASGRTIDIYAMGWYRQAPGKERELVAAISSGGSTYYADSVKGRFTISRDNAKNTVYLQMNSLKPEDTAVYYCAVRWYDQVSRRGIGYYWGQGTQVTVSS”, the “polyreactivity (PSR sort gate)” value was “low polyreactivity”. Regarding “QVQLLEAGGGLVQAGGSLRFSCAHSGSIVSHYAIGWYRQAPGKERELVAAITGGGITYYADSVKGRFTISRDNAKNTVYLQMNSLKPEDTAVDYCDTDSLMFTIYDYWGQGTQVTVSS”, the “polyreactivity (PSR sort gate)” value is recorded as “low polyreactivity”. For “QVQLLESAGGLVQAGGSLRLRCSASGYISCDASMGWYRHAPGKERELAASITKGSSTNYADSEKGRFTIRDNAINTVYLQMNSLKPEDTAVCYCAVTYPYWGDYTYWGHGTQVTVSS” the value was “low polyreactivity”. In the case of “QVQLLESGAGLVQAGGSLRLICAASVNTFYWYAMGRYRQAPGKERELVAAITWSGGSTHYADSVKGRFTISRDNAKNTVYLQMNSLTPEYTAVYYCAARYFRWWDMGYWGQGTQVSVSS”, the “polyreactivity (PSR sort gate)” value is reported as “high polyreactivity”. As for “QVQLLESGCGLVQAGGSLSIRCAATGFIFIFIAMGWSRQATGTERELVAAIDTSDDSTYYADSVMGRFTISRDNAKNTVYLQMNRLKTEDTAVYYCAAEELSNYEYWGQGTQVTVSS”, the entry is “low polyreactivity”; as for “QVQLLESGGGFVQEGGSLRLICAASGLTFYYNAMGWYRQAPGTERELVAAISFSGGRTYYADSVKGRFTISRDNAQNTVYLQMNSLKPEDTAVYYCAARVPRYRKDSVWAYYYWGQGTQVTVSS”, “high polyreactivity”. Consider “QVQLLESGGGLDQAGGTLRLSWAASGIIFSFYTMGWYRQAPGKERELVAAITWSGGSTYYADSVKGRFTISRDNAKNTVYLQMNSLKPDDTAVYYCIARNPGRKRSQGYSWGQGTQVTVSS”, for which the “polyreactivity (PSR sort gate)” value is “low polyreactivity”. As to “QVQLLESGGGLDQARGSLRLSCAASGITFEYNAMGWYRQAPGKERELVAAISLSSGSTYYADSVKGRFTISRDNAKNTVYLQMNSLKPEDTAVYYGNADTIIYEGGYWGQGTQVTVSS”, the “polyreactivity (PSR sort gate)” value is reported as “low polyreactivity”.

As for “QVQLLESGGGLVKAGGCRRLSCAASGSTLTPYTMGWYSEAPGIERELVAAMTQCGGTTYYADSVKGRFTISRDNAQNTVYVQMNSLKPEDTAVYYCAARSYGSTSPIRVQLYYWGQGTQVTVSS”, the “polyreactivity (PSR sort gate)” value was “high polyreactivity”.

Turning to “QVQLLESGGGLVLAGGSLRLSCAASGRIFNLYAMGWYRQAPGKERELVAAITDIGSSTYYADSVKGRFTISRDNAKNTVYLQMNSLKPEDTAVYYCNAVVKSSSRGSIAHPGYDYWGQGTQVTVSS”, the “polyreactivity (PSR sort gate)” value is reported as “high polyreactivity”. In the case of “QVQLLESGGGLVPSGGSLRLSCAASGLTLYTYAMGWYRQAPGKERELVAAISKNGGRTYYADSVKGRFTISRDNAKITVYLQMNSLKPEDTAVYYCADRARVGTVTFDYWGQGTQVTVSS”, the “polyreactivity (PSR sort gate)” value is given as “low polyreactivity”. As for “QVQLLESGGGLVPSRGSLRLSCAASGFTFAHYAMGWYRQAPGKERELVAAISGSGSSTYYADSVKGRFTISRDNAKNNVYLQMNSLKPEDTADYYCNVRWYFLYDYWGQGTQVTVSS”, the entry is “low polyreactivity”. As for “QVQLLESGGGLVQAGCSLRLSCAASGFIFSYAMGWYRQAPGKERQLVAAISKSGCRTYYADSVKGRFTISRDNAKNTVYLQMNSMKPEDTEVYYCAVRDLHLSNARYNFWGQGNQVTVSS”, the entry is “high polyreactivity”; as for “QVQLLESGGGLVQAGGCLRLRCAASVRTFEQNAMGWCRRAPGKERELVASITSVGSTDYADSVKGRFTISRDNAKNTVYLQMNSLKPEDTAGYYCAKTLGSQNYDFDYWGQGTQVTVSS”, “low polyreactivity”. Turning to “QVQLLESGGGLVQAGGILRLSCAASGSTFYPYAMGWSRQAPGKDRELVAAITGTGGSTYYADSVKGRFRISLDNAKNTVDLQMNSLKPEDPAVYYCATRRRYYYSGYNYWGQGTQVTVSS”, the “polyreactivity (PSR sort gate)” value is recorded as “high polyreactivity”. For the sequence “QVQLLESGGGLVQAGGSLRESCAASGSMFSHNTMGWYRQAPGKERELVATINWRATYYADSVKGRFTISRDNAKNTVYLQMNSLKPEDTAGYYCNKDRQRYGEDYWGQGTQVTVSS”, the “polyreactivity (PSR sort gate)” value is given as “high polyreactivity”. As for “QVQLLESGGGLVQAGGSLRISCASSGRTFSSNTMGRYRQAPGKERELVAAISSTDSTYYADSVKGRYTISRDNAKNTVYLQMNSLKPEDTAVYYCAKRPTRRYGYWGQGTQVTVSS”, the entry is “high polyreactivity”. For “QVQLLESGGGLVQAGGSLRLICAASGRIIYGYAMGWYRQAPGKERELVAAITATYYADSVKGRFTISRDNAKNTVYLQMKSLKPVDSGVYYCNAYLSPKQPLSTPDPSFEGGYWGQGTQVTVSS” the value was “low polyreactivity”. For “QVQLLESGGGLVQAGGSLRLRCASSGSISDWNAMGWYRQAPGKERELVAAISRGGNTNYADSVKGRFTISRDNAKNTVYLQMNSLKPEDTAVYYCAAGHGSLRYNYWGQGTQVSVSS” the value was “high polyreactivity”. With “QVQLLESGGGLVQAGGSLRLSCAASGFIFPGYAMGWYRQAPGKEREFVAAITSRGGSTYYADSVKGRFTISRDNAKNTVYLQMNSLKPEDTAVYYCAARNFLSRRGTYDYWGQGTQVTVSS”, the “polyreactivity (PSR sort gate)” value is reported as “high polyreactivity”. On to “QVQLLESGGGLVQAGGSLRLSCAASGFTLTRNAMGWYRQAPGKEREFVAAISWSGGSTYADSVKGRFTISRDNAKNTVFLQMNSLKPEDTAVYYCAADRYNGRYGYWGQGTQVTVSS”, for which the “polyreactivity (PSR sort gate)” value is recorded as “high polyreactivity”. For “QVQLLESGGGLVQAGGSLRLSCAASGGTFYSYAMGWYRQAPGKEREFVATITRRSGSTYYADSVKGRFTISRDNAKNTVYLQMNSLKPEDNAVYYCAATKYKLLFIHFRYDYWGQGTQVTVSS”, the “polyreactivity (PSR sort gate)” value is recorded as “high polyreactivity”. As for “QVQLLESGGGLVQAGGSLRLSCAASGIIFLDNAMGWYRQAPGKERELVADITSSGGSTYYADSVKGRFTISRDNAKNTVSLQMNSLKPEDTAVYYCAATRPSYNDAESDYWGQGTQVTVSS”, the entry is “low polyreactivity”; as for “QVQLLESGGGLVQAGGSLRLSCAASGITFAKYAMGWYRQAPGKEREFVAAISTSGGSTYYADSVKGRFTISRDNAKNTVYLQMNSLKPEDTAVYYSNVETYIWYFLRYYNYWGQGTQVTVSS”, “high polyreactivity”; as for “QVQLLESGGGLVQAGGSLRLSCAASGITLYRYTMGWYRQAPGKEREFVAAISRSGGSTYYADSVKGRFTLSRDNAKNTVYFQMKSLKPDDTAVYYCAAPWYEKTTRPYGSWGQGTQVTVSS”, “high polyreactivity”. As for “QVQLLESGGGLVQAGGSLRLSCAASGLIFERYAMGWYRQAPGKERELVAAITRRGGSTYDADSVKGRFTISRDNAKNTVYFQMNSLKPEDTAVNYCAAGRPQDTEFDYWGLGTQVTVSS”, the “polyreactivity (PSR sort gate)” value is reported as “high polyreactivity”. As for “QVQLLESGGGLVQAGGSLRLSCAASGLIFGENAMGWYRQAPGKERELVAAISRRAGITYYADSVKGRFTISRDNAKNTVYLQMNSLKPEDTAVYYCAAQYYLYRSRFDYWGQGTQVTVSS”, the entry is “high polyreactivity”; as for “QVQLLESGGGLVQAGGSLRLSCAASGLIFRGNDMGWYRPAPGKERELVAGINSSGSTNYADSVKGRFTISRDNAKNTVYLQMNSLKPEDTAVYDCAARAIVSFDYWGQGTQVTVSS”, “low polyreactivity”; as for “QVQLLESGGGLVQAGGSLRLSCAASGLIVSEYAMGWYRQAPGKERELVAAIRSDGGSTYYADSVKGRFTISRDNAKNTVYLQMNSLKPEDTAVYYCNAPYRRSAKFRRYGYDYWGQGTQVTVSS”, “high polyreactivity”. For “QVQLLESGGGLVQAGGSLRLSCAASGLTFPLYAMGWYRQAPGKERELVAAINWSGGSTYYADSVKGRFTISRDKAKNTVYLQMNSLKPEDTAVYYCAAARSSLYYYWGQGTQVTVSS” the value was “high polyreactivity”. “QVQLLESGGGLVQAGGSLRLSCAASGLTYAYNTMGWYRQAPGKERELVADISWSGGRTYYADSVKGRFTISRDNAKNTVYLQMNSLKPEDTAVYYCAAEFWHQYGAYDYWGQGTQVTVSS”: the “polyreactivity (PSR sort gate)” value is listed as “low polyreactivity”. For “QVQLLESGGGLVQAGGSLRLSCAASGNTFTYYAMGWYRQAPGKERELVAAISDDGNTNYADSVMGRFTISRDNAKKTVYSQMNSLKPEDTAVYYCNADSYPSLNKRGYDYWGQGTQVTVSS” the value was “low polyreactivity”; for “QVQLLESGGGLVQAGGSLRLSCAASGRIFGSNAMGWYRQAPGKERELVAAITRGGSTNYADSVKGRFTISRDNAKNTVYLQMNSLKPEDTAVYYCAAVPFGEVDYWGQGTQVTVSS”, “high polyreactivity”. As for “QVQLLESGGGLVQAGGSLRLSCAASGRIFTPYAMGWYRQAPGKERELVAVIRDGSTYYADSVKGRFTISRDNAKNTVYLQMNSLKPEDTAVYYCAADVGYSPYFFGGTRYYKYDYWGQGTQVTVSS”, the entry is “low polyreactivity”; as for “QVQLLESGGGLVQAGGSLRLSCAASGRIFVKYAMGWYRQAPGKERELVAAISKSGGSTYYADSVKGRFTISRDNAKNTVYLQMNSLKPEDTAVYYCAPRSRDQYSGSYRLDYWGQGTQVTVSS”, “low polyreactivity”. For “QVQLLESGGGLVQAGGSLRLSCAASGRIFVVNAMGWYRQAPGKERELVATITRGASTYADSVKGRFTISRDNAKNTVYLQMNSLKPEDTAVYYCAAAKRPQVVRYDWTKLEYWGQGTQVTVSS” the value was “high polyreactivity”; for “QVQLLESGGGLVQAGGSLRLSCAASGRIFVYYAMGLYRKAPGKERELVATITFGGGSTYYADSVKGRFTISRDNAKNNVYLQMNSLKQEDTAVYYCNAPGFAWYTTKYDYCGQGTQVTVSS”, “low polyreactivity”. As for “QVQLLESGGGLVQAGGSLRLSCAASGRTFRYYAMGWYRQAPGKERELVAAITANGGSTYYADSVKGRFTISRDNAKNTVYLQMNSLKPEDTAVYYCAAKYNTKLYYWGQGTQVTVSS”, the “polyreactivity (PSR sort gate)” value was “high polyreactivity”. As for “QVQLLESGGGLVQAGGSLRLSCAASGRTFYRYAMGWYRKAPGKETELVAANSSSGGSTYYADSVKGRFTISRDNAKNTVYLQMNSLKPEDTAVYYCAAQYFLFTTPYRYAPRMGYWGQGTQVTVSS”, the entry is “high polyreactivity”; as for “QVQLLESGGGLVQAGGSLRLSCAASGSIFGINAMGWYRQAPGKERELVAAISGSTSRTYYADSVKGRFTISRDNAKNTVYLQMNSLKPEDTAVYYCAVVGLRSVTRRSYYWGQGNQVTVSS”, “high polyreactivity”.
